Experimental data reported in US20200024330A1.

Legend:
Test in all cases: cell-based or functional assay
[1] = molecular target: HIV-1 MGRM-C-008 Env (HIV-1)
[2] = molecular target: HIV-1 Env of isolate MGRM-D-003 (clade D) (HIV-1)
[3] = molecular target: HIV-1 CMU02 envelope glycoprotein (Env) on pseudovirus (HIV-1)
[4] = molecular target: HIV-1 Env of isolate MGRM-D-028 (clade D) (HIV-1)
[5] = molecular target: HIV-1 MGRM-C-014 Env (HIV-1)
[6] = molecular target: HIV-1 Env of isolate MGRM-D-012 (clade D) (HIV-1)
[7] = molecular target: HIV-1 Env of isolate MGRM-D-004 (clade D) (HIV-1)
[8] = molecular target: HIV-1 Env of pseudovirus TRO.11 (Acute), clade B (HIV-1)
[9] = molecular target: HIV-1 Env of pseudovirus TRJ0.58 (Acute), clade B (HIV-1)
[10] = molecular target: HIV-1 Env of isolate MGRM-G-015 (clade G pseudovirus) (HIV-1)
[11] = molecular target: HIV-1 Env of pseudovirus MGRM-Chronic-B-002, clade B (HIV-1)
[12] = molecular target: HIV-1 Env of pseudovirus APV_13, clade B (HIV-1)
[13] = molecular target: HIV-1 93RW029 envelope glycoprotein (Env) (HIV-1)
[14] = molecular target: HIV-1 MGRM-F1-017 Env (pseudovirus) (HIV-1)
[15] = molecular target: HIV-1 Env of pseudovirus QH0692.42 (Acute), clade B (HIV-1)
[16] = molecular target: HIV-1 JRCSF envelope glycoprotein (Env) on pseudovirus (HIV-1)
[17] = molecular target: HIV-1 Env of isolate MGRM-D-024 (clade D) (HIV-1)

Chain of 1443_C16 (PG16) (TCN-116) (antibody) (VH): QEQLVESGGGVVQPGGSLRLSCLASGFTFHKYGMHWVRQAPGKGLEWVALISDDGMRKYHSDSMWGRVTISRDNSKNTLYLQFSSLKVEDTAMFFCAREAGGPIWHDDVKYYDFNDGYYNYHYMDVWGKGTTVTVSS
Chain of 1443_C16 (PG16) (TCN-116) (antibody) (VL): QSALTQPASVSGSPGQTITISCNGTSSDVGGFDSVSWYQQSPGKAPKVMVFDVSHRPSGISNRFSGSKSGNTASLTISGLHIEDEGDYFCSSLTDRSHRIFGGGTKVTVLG

## 2F5 (antibody)
[1]
  IC50: > 50 µg/mL
[2]
  IC50 (µg/ml), pseudovirus neutralization: > 50 µg/mL
[3]
  IC90 (pseudovirus neutralization): 12.2 µg/mL
[4]
  IC50 (µg/ml), pseudovirus neutralization: > 50 µg/mL
[5]
  IC50: > 50 µg/mL
[6]
  IC50 (µg/ml), pseudovirus neutralization: 1.7 µg/mL
[7]
  IC50 (µg/ml), pseudovirus neutralization: 2.3 µg/mL
[8]
  IC50 (µg/ml), pseudovirus neutralization: > 50 µg/mL
[9]
  IC50 (µg/ml), pseudovirus neutralization: > 50 µg/mL
[10]
  IC50 (µg/ml), pseudovirus neutralization: 0.43 µg/mL
[11]
  IC50 (µg/ml), pseudovirus neutralization: 1.25 µg/mL
[12]
  IC50 (µg/ml), pseudovirus neutralization: 3.81 µg/mL
[13]
  IC50 (µg/ml), pseudovirus neutralization: > 50 µg/mL
[14]
  IC50 (µg/ml), pseudovirus neutralization: > 50 µg/mL
[15]
  IC50 (µg/ml), pseudovirus neutralization: 5.42 µg/mL
[16]
  IC90 (pseudovirus neutralization): 25.3 µg/mL
[17]
  IC50 (µg/ml), pseudovirus neutralization: > 50 µg/mL

## 2G12 (antibody)
[1]
  IC50: > 50 µg/mL
[2]
  IC50 (µg/ml), pseudovirus neutralization: > 50 µg/mL
[3]
  IC90 (pseudovirus neutralization): > 50 µg/mL
[4]
  IC50 (µg/ml), pseudovirus neutralization: > 50 µg/mL
[5]
  IC50: > 50 µg/mL
[6]
  IC50 (µg/ml), pseudovirus neutralization: > 50 µg/mL
[7]
  IC50 (µg/ml), pseudovirus neutralization: > 50 µg/mL
[8]
  IC50 (µg/ml), pseudovirus neutralization: 0.29 µg/mL
[9]
  IC50 (µg/ml), pseudovirus neutralization: > 50 µg/mL
[10]
  IC50 (µg/ml), pseudovirus neutralization: > 50 µg/mL
[11]
  IC50 (µg/ml), pseudovirus neutralization: > 50 µg/mL
[12]
  IC50 (µg/ml), pseudovirus neutralization: 9.24 µg/mL
[13]
  IC50 (µg/ml), pseudovirus neutralization: > 50 µg/mL
[14]
  IC50 (µg/ml), pseudovirus neutralization: > 50 µg/mL
[15]
  IC50 (µg/ml), pseudovirus neutralization: 4.39 µg/mL
[16]
  IC90 (pseudovirus neutralization): 5.38 µg/mL
[17]
  IC50 (µg/ml), pseudovirus neutralization: > 50 µg/mL

## 1443_C16 (PG16) (TCN-116) (antibody)
[1]
  IC50: > 50 µg/mL
[2]
  IC50 (µg/ml), pseudovirus neutralization: 0.01 µg/mL
[3]
  IC90 (pseudovirus neutralization): > 50 µg/mL
[4]
  IC50 (µg/ml), pseudovirus neutralization: > 50 µg/mL
[5]
  IC50: > 50 µg/mL
[6]
  IC50 (µg/ml), pseudovirus neutralization: 0.35 µg/mL
[7]
  IC50 (µg/ml), pseudovirus neutralization: 0.01 µg/mL
[8]
  IC50 (µg/ml), pseudovirus neutralization: 0.22 µg/mL
[9]
  IC50 (µg/ml), pseudovirus neutralization: 1.16 µg/mL
[10]
  IC50 (µg/ml), pseudovirus neutralization: 5.33 µg/mL
[11]
  IC50 (µg/ml), pseudovirus neutralization: 3.06 µg/mL
[12]
  IC50 (µg/ml), pseudovirus neutralization: > 50 µg/mL
[13]
  IC50 (µg/ml), pseudovirus neutralization: 3.83 µg/mL
[14]
  IC50 (µg/ml), pseudovirus neutralization: > 50 µg/mL
[15]
  IC50 (µg/ml), pseudovirus neutralization: > 50 µg/mL
[16]
  IC90 (pseudovirus neutralization): 0.013 µg/mL
[17]
  IC50 (µg/ml), pseudovirus neutralization: 0.02 µg/mL

## 4E10 (antibody)
[1]
  IC50: 2.97 µg/mL
[2]
  IC50 (µg/ml), pseudovirus neutralization: 2.49 µg/mL
[3]
  IC90 (pseudovirus neutralization): 13.4 µg/mL
[4]
  IC50 (µg/ml), pseudovirus neutralization: 1.28 µg/mL
[5]
  IC50: 2.48 µg/mL
[6]
  IC50 (µg/ml), pseudovirus neutralization: 1.13 µg/mL
[7]
  IC50 (µg/ml), pseudovirus neutralization: 1.58 µg/mL
[8]
  IC50 (µg/ml), pseudovirus neutralization: 1.39 µg/mL
[9]
  IC50 (µg/ml), pseudovirus neutralization: 11.9 µg/mL
[10]
  IC50 (µg/ml), pseudovirus neutralization: 1.07 µg/mL
[11]
  IC50 (µg/ml), pseudovirus neutralization: 2.19 µg/mL
[12]
  IC50 (µg/ml), pseudovirus neutralization: 7.33 µg/mL
[13]
  IC50 (µg/ml), pseudovirus neutralization: 15.5 µg/mL
[14]
  IC50 (µg/ml), pseudovirus neutralization: 4.92 µg/mL
[15]
  IC50 (µg/ml), pseudovirus neutralization: 12.7 µg/mL
[16]
  IC90 (pseudovirus neutralization): 44.1 µg/mL
[17]
  IC50 (µg/ml), pseudovirus neutralization: 3.6 µg/mL
